Assay [1] addresses T1, IL-18 previously complexed to IL-18BP (Homo sapiens, UniProt Q14116).
T1 sequence (Q14116 37-193): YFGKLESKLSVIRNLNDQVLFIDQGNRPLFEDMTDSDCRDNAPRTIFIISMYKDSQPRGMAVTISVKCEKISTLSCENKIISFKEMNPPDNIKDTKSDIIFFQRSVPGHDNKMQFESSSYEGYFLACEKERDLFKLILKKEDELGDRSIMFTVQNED
T1 sequence (O95998 31-194 partner): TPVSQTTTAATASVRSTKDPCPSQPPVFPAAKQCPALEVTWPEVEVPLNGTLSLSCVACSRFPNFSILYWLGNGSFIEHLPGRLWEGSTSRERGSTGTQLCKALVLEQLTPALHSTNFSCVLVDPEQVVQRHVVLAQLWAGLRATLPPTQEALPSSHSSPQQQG
The assay is described as follows: Luminex screening third step: monoclonal antibody binding on IL-18 previously complexed to IL-18BP. The following applies: for fluorescence signal after binding IL-18 in the presence of IL-18BP: third screening step. The source says:
Third step. A third screening program was undertaken with Luminex beads linked to IL-18BP and then complexed to interleukin-18, assuring the presentation of properly folded recombinant IL-18 to positive antibody candidates.

In assay [2] the target is T2, IL-18 (Homo sapiens, UniProt Q14116).
T2 sequence (Q14116 37-193): T1 sequence (Q14116 37-193)
The assay is described as follows: Luminex screening second step: biotinylated IL-18BP binding on IL-18 previously complexed to monoclonal antibody. The text has this: Second step. Potential antibodies targeting IL-18 on IL-18BP binding site were rescreened in competition with IL-18BP, but not with IL-18BP fusions with Fc antibody domains, or other type of fusions, in order to prevent false antibody positive candidates due to steric hindrance created by the fused peptide. For this, monoclonal antibodies were bound to Luminex beads carrying IL-18. The complex was then exposed to biotinylated IL-18BP in order to identify interference to previously identified anti-IL-18 antibodies (see Table 7, Column #2).

For another assay, the target named is T3, human interleukin-18 (Homo sapiens, UniProt Q14116).
T3 sequence (Q14116 37-193): T1 sequence (Q14116 37-193)
The assay can be described thus: Luminex screening first step: monoclonal antibodies binding on IL-18. Conditions: IL-18 attached to Luminex beads. The text has this: Mice were vaccinated against human interleukin-18 using a technology allowing immunization with properly folded proteins. Prior to immunization, genetically modified mice were selected for major histocompatibility complexes supposedly sensitive to IL-18 surface area epitopes binding IL-18BP. Following immunization, B cells were isolated from spleen and hybridized following standard hybridoma technology. Hybridoma were sorted onto microplates and then tested for expression of monoclonal anti-IL-18 antibodies targeting IL-18 epitopes included in IL-18BP binding site. The screening was performed in 3 sequential and selective steps: […]

Assay [3] has as its target T2, IL-18. The assay can be described thus: KD of monoclonal antibodies by titration with a defined IL-18 molarity (EC50, Law of Mass Action). It counts as binding. The procedure: The respective KD values of each monoclonal antibody was calculated following titration of the antibodies with a defined IL-18 molarity and derived from the obtained EC50 values with the Law of Mass Action (see above).

Changes are numbered by the printed parent chain. Values joined by “and” are separate entries in the source; they are usually repeats but may differ in a detail not shown here. Equal values may be shown once. Read-outs that look alike come from different tables or passages of the source.

B1: Antibody 132H4: monoclonal anti-IL-18 antibody; VH SEQ ID NO 23, VK SEQ ID NO 24 (antibody, V domains shown)
VH: EVKLVESGGGLVKPGGSLKLSCAASGFTFSNYAMSWVRQNPAKRLEWVATISSGGANIYYPDSVKGRFIISRDNARNTLYLQMSSLRSEDTAMYYCARGDYFNHFWFAYWGQGTLVTVSA
VL: DVLMTQTPLSLPVSLGDQASISCRSSQSIVHSNGNTYLEWYLQKPGQSPKFLIYKVSNRFSGVPDRFSGSGSGTDFTLKINRVEAEDLGIYYCFQGSHVPWTFGGGTKLEIK
modifications: Antibody 132H4 VH variable domain sequence; Antibody 132H4 VK variable domain sequence
Consider B1, for which the “fluorescence signal after binding IL-18 in the presence of IL-18BP” value (“fluorescence signal” below) in assay [1] is on record as “very low fluorescence signal”. In addition, the “IL-18BP binding on IL-18 previously complexed to monoclonal antibody, Fluorescence intensity” value (“IL-18BP binding” for short) with IL-18 [2] is reported as 1 488. In addition, in the assay with human interleukin-18, the “Monoclonal antibodies binding on IL-18, Fluorescence intensity” value (“Monoclonal antibodies binding” below) was 23 839.

B2: Antibody 109A6: monoclonal anti-IL-18 antibody; VH SEQ ID NO 13, VK SEQ ID NO 14 (antibody, V domains shown)
VH: EVQLQQSGAELVKPGASVKLSCTASGFKIKDTYIHWVIQRPAQGLEWIGRIDPANGNTIYGSKFQGKATLTADTSSNTAYIHLSSLTSGDSAVYYCAGYVWFAYWGQGTLVTVSA
VL: DVVMTQVPLSLPVSLGDQASISCRSSQRLVHSNGNTYLHWFLQKPGQSPKLLIYTVSNRFSGVPDRFSGSGSGTDFTLKISRVEAEDLGVYFCSQSTLVPWTFGGGTKLEIK
modifications: Antibody 109A6 VH variable domain sequence; Antibody 109A6 VK variable domain sequence
As to B2, in assay [1], the “fluorescence signal” value was “very low fluorescence signal”. Also, the “Monoclonal antibodies binding” value with human interleukin-18 is recorded as 25 848.

B3: Antibody 131B4: monoclonal anti-IL-18 antibody; VH SEQ ID NO 18, 103 or 109, VK SEQ ID NO 19 (antibody, V domains shown)
VH: B2 VH with L4V, V37L, I38K, A42E, L70I, H82Q, S91T, Y95F
VL: DAVLTQTPLSLPVSLGDQASISCTSSQSLVHSNGNTYLHWYLQKPGQSPKLLIYKVSDRFSGVPDRFSGSGSGTDFTLMITRVEAEDLGVYFCSQSSLVPWTFGGGTKLEVK
For orientation: Kd means the free concentration of one partner at which half of the binding sites on the other are occupied at equilibrium, for simple one-to-one binding. Regarding B3, the “Column #3 Monoclonal antibody binding on IL-18 previously complexed to IL-18BP, Fluorescence intensity” value in assay [1] (Luminex beads linked to IL-18BP, complexed to IL-18) was 41. The “fluorescence signal” value in assay [1] is recorded as “very low fluorescence signal”. The “IL-18BP binding” value with IL-18 [2] is on record as 1 656. For the same molecule, the Kd with IL-18 [3] (mean of determinations, read-out: KD, Mean) is 0.015 nM; with IL-18 [3] (single determinations, read-out: KD), 0.02 nM and 0.01 nM. Also, the “Monoclonal antibodies binding” value with human interleukin-18 is 24 838.

B4: Antibody 107C6: monoclonal anti-IL-18 antibody; VH SEQ ID NO 9, VK SEQ ID NO 10 (antibody, V domains shown)
VH: QIQLVQSGPELKKPGETVKLSCRASGYTFTNYGMNWVKQAPGKGLKWMGWINTYSGVPTYADDFKGQFAFSLETSAATAFLQINNLKDEDTATYFCAREGYSTTRSMDYWGQGTSVTVSS
VL: DIVMSQSPSSLAVSAGEKVTMSCKSSQSLLDSRTRKNYLVWYQQKPGQSPKLLIYWASTRGSGVPDRFTGSGSGTDFTLTISSVQAEDLAVYYCKQSYNLRTFGGGTKLEIK
modifications: Antibody 107C6 VH variable domain sequence; Antibody 107C6 VK variable domain sequence
On to B4, for which, in assay [1], the “fluorescence signal” value is “very low fluorescence signal”. The “IL-18BP binding” value with IL-18 [2] is 1 389. Besides, the “Monoclonal antibodies binding” value with human interleukin-18 is recorded as 26 250.

B5: Antibody 108F8: monoclonal anti-IL-18 antibody; VH SEQ ID NO 11, VK SEQ ID NO 12 (antibody, V domains shown)
VH: B4 VH with E10D, L11S
VL: B4 VL
modifications: Antibody 108F8 VH variable domain sequence; Antibody 108F8 VK variable domain sequence
Regarding B5, the “fluorescence signal” value in assay [1] was “very low fluorescence signal”. In addition, the “IL-18BP binding” value in the assay with IL-18 [2] is given as 1 292. In addition, in the assay with human interleukin-18, the “Monoclonal antibodies binding” value is 25 126.
